{"source": "paper PMC9792896", "about": "“Lack of ApoE inhibits ADan amyloidosis in a mouse model of familial Danish dementia” (The Journal of Biological Chemistry, 2022)", "proteins": {"B1": {"name": "ADan amyloid peptide (peptide)", "peptide": "EASNCFAIRHFENKFAVETLICFNLFLNSQEKHY", "notes": "34 aa amyloid peptide released by pro-protein convertases from the familial Danish dementia (FDD) mutant form of human BRI2 (ITM2B); The first 22 residues are as in wild-type BRI2; Reconstituted in hexafluoroisopropanol (1 mg/ml, 7 days), stock in dimethyl sulfoxide, diluted in PBS; also called Danish amyloid; source: synthetic peptide (ERI Amyloid Laboratory)"}}, "target": "the molecule itself", "assay": "thioflavin-T aggregation assay; 30 μM peptide in PBS with 20 μM Th-T, pH 7.2, 100 μl in black 96-well nonbinding plate, 37 °C, fluorescence (ex 440 nm, em 495 nm) every 15 min for 18 h; peptide alone"}
{"protein": "B1", "values": [{"measurement": "binding result", "value": "binds"}]}
